Values quoted from earlier work as cited in PMC2678197 (Chemistry & biology, 2009).

Molecular target: eotaxin (Homo sapiens, UniProt P51671)
Details: read-out: equilibrium dissociation constant (Kd); binding to eotaxin; ref [26]

Kd: 80 ± 38 µM
Substance: 35-residue non-sulfated peptide: 35-residue non-sulfated peptide corresponding to the complete N-terminal region of CCR3 (MTTSLDTVETFGTTSYYDDVGLLCEKADTRALMAQ; unsulfated; the limits 1-35 are inferred from '35-residue' and 'complete N-terminal region')
